Test: yeast display, Sf9 membrane polyspecificity reagent, FACS + sequencing; frameworks hold sequencing errors
Summary of the method: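 Polyreactivity labels are assigned by the sorting gate from which each nanobody was recovered. The gates were low and high (top ~1%), set on anti-HA fluorescence for expression and streptavidin fluorescence for reagent binding. Before sorting, galactose-induced (36–48 hours) yeast display cells were stained for 1 hour at 4 °C with 10% biotinylated, detergent-solubilized Sf9 membrane reagent.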

Sequence: QVQLVESGGGLVQAGGSLRLSCAASGSIFSSYAMGWYRQAPGKERELVAAISSSGDSTYADSVKGRFTISRDNAKNTVYLQMNSLKPEDTAVYYCAVGGAGSDDYWGQGTQVTVSS
- polyreactivity (PSR sort gate): low polyreactivity

Sequence: QVQLVESGGGLVQAGGSLRLSCAASGSIFSSYAMGWYRQAPGKERELVAAISWRGGSTYYADSVKGRFTISRDNAKNTVYLQMNSLKPEDTAVYYCAAQYQYYGGRRYDYWGQGTQVTVSS
- polyreactivity (PSR sort gate): high polyreactivity

Sequence: QVQLVESGGGLVQAGGSLRLSCAASGSIFSSYSMGWYRQAPGKERELVAAISSGDSTYYADSVKGRFTISRDNAKNTVYLQMNSLKPEDTAVYYCAAPWYAWGQGTQVTVSS
- polyreactivity (PSR sort gate): low polyreactivity

Sequence: QVQLVESGGGLVQAGGSLRLSCAASGSIFSTYAMGWSRQAPGKERELVAAITTSGGRTYYADSVKGRFTISRDNAKNTVYLQMNSLKPEDTAVYYCNAVRGGRYGLDYWGQGTQVTVSS
- polyreactivity (PSR sort gate): high polyreactivity

Sequence: QVQLVESGGGLVQAGGSLRLSCAASGSIFSTYAMGWYRQAPGKERELVAAISRRAGTTYYADSVKGRFTISRDNAKNTVYLQMNSLKPEDTAVYYCAALTESSSYGYWGQGTQVTVSS
- polyreactivity (PSR sort gate): low polyreactivity

Sequence: QVQLVESGGGLVQAGGSLRLSCAASGSIFSTYAMGWYRQAPGKERELVAALDDDGGSTYYADSVKGRFTISRDNAKNTVYLQMNSLKPEDTAVYYCNADYDGNGWAGDYSDSYDYWGQGTQVTVSS
- polyreactivity (PSR sort gate): low polyreactivity

Sequence: QVQLVESGGGLVQAGGSLRLSCAASGSIFSTYVMVWYRQAPGKDRELVAAITVSVGSTYYADSVKGRFTISRDNAKNTVYLQMNSLKPEDTAVYYCAAYGGTGYPFDAYYHDYDYWGQGTQVTVSS
- polyreactivity (PSR sort gate): low polyreactivity

Sequence: QVQLVESGGGLVQAGGSLRLSCAASGSIFSVNAMGWYRQAPGKERELVAAISWRGGSTYYADSVKGRFTISRDNAKNTVYLQMNSLKPEDTAVYYCNAVISVKRSTRYGYWGQGTQVTVSS
- polyreactivity (PSR sort gate): low polyreactivity

Sequence: QVQLVESGGGLVQAGGSLRLSCAASGSIFSVNAMGWYRQAPGKVRELVAAISWRGGSTYYADSVKGRFTISRYNAKTTVYLQMNSLKPEDTAGYYCNAVISVKRSTRYGYWGQGTQVTVSS
- polyreactivity (PSR sort gate): low polyreactivity

Sequence: QVQLVESGGGLVQAGGSLRLSCAASGSIFSVNTMGGYRQAPGKERELVADISSGDSTYYADSVKGRFTISRDNAKNTVYLQMNSLKPEDTAVYFCNADVYSWVSGKEGDYWGQGTQVTVSS
- polyreactivity (PSR sort gate): low polyreactivity

Sequence: QVQLVESGGGLVQAGGSLRLSCAASGSIFSVYAMGWYRQAPGKERELVAAITSGTSTYADSVKGRFTISRDNAKNTVYLQMNSLKPEDTAVYYCAAEFLWIVDYWGQGTQVTVSS
- polyreactivity (PSR sort gate): low polyreactivity

Sequence: QVQLVESGGGLVQAGGSLRLSCAASGSIFSVYSMGWYRQAPGKERELVADITRSGARTYYADSVKGRFTISRDNAKNTVYFPMNSLKPEDTAVYYCAADDPCYDQVEYWGQGTQVTVSS
- polyreactivity (PSR sort gate): high polyreactivity

Sequence: QVQLVESGGGLVQAGGSLRLSCAASGSIFSVYVMGWYRQAPGKERELVAAISWSDSDTYYADSVKGRFTISRDNAKNTVYLQMNSLKPEDTAVYYCNVVNPVLYSSYEFDYWGQGTQVTVSS
- polyreactivity (PSR sort gate): high polyreactivity

Sequence: QVQLVESGGGLVQAGGSLRLSCAASGSIFSWSAMGWYRQAPGKVRELVAGITWTGGSTYYADSVKGRFTISRDNAKNTVYLQRNSLKPEDTAVYYCNARRATYRKYTPVPFDRYDYWGQGTQVTVSS
- polyreactivity (PSR sort gate): high polyreactivity

Sequence: QVQLVESGGGLVQAGGSLRLSCAASGSIFSWYAMGWYRQAHGKEREFVAGISSSGSTKYADSVKGRFTISRDNAKNTVYLQMNSLKPEDTAVYYCAVANKSQRYFYYYFHYYYWGQGTQVTVSS
- polyreactivity (PSR sort gate): low polyreactivity

Sequence: QVQLVESGGGLVQAGGSLRLSCAASGSIFSWYAMGWYRQAPGKERELVAAIRRGGSTYYADSVKGRFTISRDNAKNTVYLQMNSLKPEDTAVYYCAARVYTAASRGRGDYWGQGTQVTVSS
- polyreactivity (PSR sort gate): low polyreactivity

Sequence: QVQLVESGGGLVQAGGSLRLSCAASGSIFSWYAMGWYRQAPGKERELVAAIRWSGGRTYYADSVKGRFTISRDNAKNTVYLQMNSLKPEDTAVYYCAADFYPDEYYYWGQGTQVTVSS
- polyreactivity (PSR sort gate): high polyreactivity

Sequence: QVQLVESGGGLVQAGGSLRLSCAASGSIFSYNALGWYRQAPGKEREFVAAISARGGSTYYADSVKGRFTISRDNAKNTVYLLMNSLKPEDTAVYYCAASWGLGTYSDSTYWGGYYYWGQGTQVTVSS
- polyreactivity (PSR sort gate): low polyreactivity

Sequence: QVQLVESGGGLVQAGGSLRLSCAASGSIFSYNAMGWYREAPGKERELVAAISSRGRTYYADSVKGRFTISRDNAKNTVNLQMNSLKPEDTAVYYCAARGYWDLRTFYYWGQGTQVTVSS
- polyreactivity (PSR sort gate): high polyreactivity

Sequence: QVQLVESGGGLVQAGGSLRLSCAASGSIFSYNAMGWYRQAPGKEMELVAAISSGGSTYYADSVKGSFTISRDNAKNTVYLQMNSLKPEDTAVYYCNVYYLIWPYGHQVKRRDYWGQGTQVTVSS
- polyreactivity (PSR sort gate): low polyreactivity

Sequence: QVQLVESGGGLVQAGGSLRLSCAASGSIFSYNAMGWYRQAPGKERELVAAITWSGGSTYYADSVKGRFTISRDNAKNTVYLQMNSLKPEDTAVYDCAAKGGYSTVRPTYTKFNYWGLGTQVTVSS
- polyreactivity (PSR sort gate): high polyreactivity

Sequence: QVQLVESGGGLVQAGGSLRLSCAASGSIFSYYAMGWSRQAPGKERELVAAISSGGSRTYYADSVKGRFTISRDNAKNTVYLQMNSLKPEDTAVYYCNAPAPARYYRGHDYWGQGTQVTVSS
- polyreactivity (PSR sort gate): high polyreactivity

Sequence: QVQLVESGGGLVQAGGSLRLSCAASGSIFSYYAMGWYRQAPGKERELFAVINSGGRTNYADSVKGRFTISRDNAKNTVYLQMNSLKPEDTAVYYCAAQGYFVDRAGRYYRGDYWGQGTQVTVSS
- polyreactivity (PSR sort gate): high polyreactivity

Sequence: QVQLVESGGGLVQAGGSLRLSCAASGSIFSYYAMGWYRQAPGKERELVAAISQSGGTTYYADSVKGRFTISRDNAKNTDYLQMKSLKPEDTAVYYCAARAPSSFDTQYYYWGQGTQVTVSS
- polyreactivity (PSR sort gate): low polyreactivity

Sequence: QVQLVESGGGLVQAGGSLRLSCAASGSIFSYYAMGWYRQAPGKERELVAAISQSGGTTYYADSVKGRFTISRDNAKNTVYLQMNSLKPEDTAVYYCAARAPSSFDTQYYYWGQGTQVTVSS
- polyreactivity (PSR sort gate): low polyreactivity

Sequence: QVQLVESGGGLVQAGGSLRLSCAASGSIFSYYAMGWYRQAPGKERELVAAISRGGYTYYADSVKGRFTISRDNAKNTVYLQMNSLKPEDTAVYYCAAAPYYVTLVTRRDYWGQGTQVTVSS
- polyreactivity (PSR sort gate): high polyreactivity

Sequence: QVQLVESGGGLVQAGGSLRLSCAASGSIFSYYAMGWYRQAPGKERELVAAISVSGGRTYYADSVKGRFTISRDNAKNTVYLQMNSLKPEDTAVYYCATRIRSYYYWGQGTQVTVSS
- polyreactivity (PSR sort gate): high polyreactivity

Sequence: QVQLVESGGGLVQAGGSLRLSCAASGSIFSYYAMGWYRQAPGKERELVAAISWSGGRTYYADSVKGRFTISRDNAKNTVYLQMNSLKPEDTAVYYCNVDVYVVPHYDYWGQGTQVTVSS
- polyreactivity (PSR sort gate): high polyreactivity

Sequence: QVQLVESGGGLVQAGGSLRLSCAASGSIFSYYAMGWYRQAPGKERELVAANDWNVDSTYYADSVKGRFTISRDNAKNTVYLQLNSLNPEDTAVYYCNAEVYYFYTRYTWYLYDYWRQGTQVTVSS
- polyreactivity (PSR sort gate): low polyreactivity

Sequence: QVQLVESGGGLVQAGGSLRLSCAASGSIFSYYAMGWYRQAPGKERELVAGITWSGGRTYYADSVKGRFTISRDNAKNTVYLQMNSLKPEDTAVYYCAAVQLFSRRSRYDYWGQGTQVTVSS
- polyreactivity (PSR sort gate): high polyreactivity

Sequence: QVQLVESGGGLVQAGGSLRLSCAASGSIFSYYAMGWYRQATGKERELVAAITRGGTTYYAVCVKGRFTISRDNAKNTVYLQMNSLKPDDTAVYYCAVYYYSGTAGYRYGYWGQGTQVTVSS
- polyreactivity (PSR sort gate): high polyreactivity

Sequence: QVQLVESGGGLVQAGGSLRLSCAASGSIFSYYPMGWYRPAPGKERELVAAISWSGGSTYYADSVKGRFTISRDNAKNTVYLQMNSLKPEDTAVYYCAAQSWSGDSSFWRYDYWGQGTQVTVSS
- polyreactivity (PSR sort gate): low polyreactivity

Sequence: QVQLVESGGGLVQAGGSLRLSCAASGSIFTANAMGWYRQAPGKERELVAAISRSGGRTYYADSLKGRFTISRDNEKNTVYLQWKSLKPEDTAVYYCNVGRFNTSGYDYWGLGTQVTVSS
- polyreactivity (PSR sort gate): high polyreactivity

Sequence: QVQLVESGGGLVQAGGSLRLSCAASGSIFTANAMGWYRQAPGKERELVAAISRSGGRTYYADSVKGRFTISRDNAKNTVYLQMNSLKPEDTAVYYCNVGRFNTSGYDYWGQGTQVTVSS
- polyreactivity (PSR sort gate): high polyreactivity

Sequence: QVQLVESGGGLVQAGGSLRLSCAASGSIFTAYAMGWYRQAPGKERELVAAISYGGGSTYYADSVKGRFTISRDNAKNTVYLQMNSLKPEDTAVYYCAAASSGEYGYWGQGTLVTVSS
- polyreactivity (PSR sort gate): low polyreactivity

Sequence: QVQLVESGGGLVQAGGSLRLSCAASGSIFTAYTMGWYRQAPGKERELVAVISDSSGRTYYADSVKGRFTISRDNAKNTVYLQMNSLKPEVTAVYYCAAEYSDIYEYWGQGTQVTVSS
- polyreactivity (PSR sort gate): low polyreactivity

Sequence: QVQLVESGGGLVQAGGSLRLSCAASGSIFTDYTMGWYRQAPGKERELVAAISWIGDSTDYADSVKGRFTISRDNAKNTVYLQMNSLKPEDTAVYYCAKSRAGRYNDYDYWGQGTQVTVSS
- polyreactivity (PSR sort gate): low polyreactivity

Sequence: QVQLVESGGGLVQAGGSLRLSCAASGSIFTEYAMGWYIQAPGKERELVAAISWSGATTYYADSVKGRFTISRDNAKNTVYLQMNSLKPEDTAVYYCAARWANRSYEYWGQGTQVTVSS
- polyreactivity (PSR sort gate): low polyreactivity

Sequence: QVQLVESGGGLVQAGGSLRLSCAASGSIFTEYAMGWYRKAPGKERELVAVITLRGGSTYYADSVKGRFTISRDNAMNTVYLQMNSLKPEDTAVYYCAAVTLVSFWFDYWGQGTQVTVSS
- polyreactivity (PSR sort gate): low polyreactivity

Sequence: QVQLVESGGGLVQAGGSLRLSCAASGSIFTFNAMGWYRQAPGKERELVAAINWSGTRTYYADSVKGRFTISRDNAKNTVYLQMNSLKPEDTAVYYCNTRPSKRYGYDYWGQGTQVTVSS
- polyreactivity (PSR sort gate): high polyreactivity

Sequence: QVQLVESGGGLVQAGGSLRLSCAASGSIFTFYTMGWYRQAPGKERELVAAISQTGGRTYYADSVKGRFTISRDNAKNTVYLQMNSLKPEDTAVYYCAARSKRLAHDYWGQGTQVTVSS
- polyreactivity (PSR sort gate): high polyreactivity

Sequence: QVQLVESGGGLVQAGGSLRLSCAASGSIFTGNAMGWYRQAPGKERELVAAITNGGITNYADSVKGRFTISRDNAKNTVYLQMNSLKPEDTAVYYCAADYVDFYSFRRFDYWGQGTQVTVSS
- polyreactivity (PSR sort gate): low polyreactivity

Sequence: QVQLVESGGGLVQAGGSLRLSCAASGSIFTGYAMGWYRPAPGKERELVAANRYTTTSTYYADSVKGRFTISRDNAKNTVYLQMHSLKPEDTAVYYCKGWRGTYSGDYWGQGTQVTVSS
- polyreactivity (PSR sort gate): high polyreactivity

Reference: the nanobody polyreactivity screen of Harvey et al. (2022)
